# Like-named read-outs stand apart in the source and are kept apart here.
# B1: α62 (dsDNA)
# DNA 1: CCTGCAGATACTACCAAAAGTGTATTTGGAAACTGCTCCATCAAAAGGCATGTTCAGCTGGA
# DNA 2: TCCAGCTGAACATGCCTTTTGATGGAGCAGTTTCCAAATACACTTTTGGTAGTATCTGCAGG
# B2: Cen4 CDEII 78 bp (dsDNA)
# DNA 1: CTTATAATCAACTTTTTTAAAAATTTAAAATACTTTTTTATTTTTTATTTTTAAACATAAATGAAATAATTTATTTAT
# DNA 2: ATAAATAAATTATTTCATTTATGTTTAAAAATAAAAAATAAAAAAGTATTTTAAATTTTTAAAAAAGTTGATTATAAG
# How the values were obtained:
# Experiment in all cases: EMSA
# Cse4-Δ90 octamer = Cse4-Δ90 octamer (UniProt P36012;P02309;P04911;P02293 91-229;2-103;2-132;2-131)
# Chain of Cse4-Δ90 octamer (P04911 2-132, stated change not applied, chain 3 of 2): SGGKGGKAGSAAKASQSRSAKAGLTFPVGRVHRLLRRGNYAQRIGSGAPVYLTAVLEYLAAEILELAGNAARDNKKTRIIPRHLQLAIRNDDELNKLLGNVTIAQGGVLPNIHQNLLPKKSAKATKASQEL
# Chain of Cse4-Δ90 octamer (P02293 2-131, stated change not applied, chain 4 of 2): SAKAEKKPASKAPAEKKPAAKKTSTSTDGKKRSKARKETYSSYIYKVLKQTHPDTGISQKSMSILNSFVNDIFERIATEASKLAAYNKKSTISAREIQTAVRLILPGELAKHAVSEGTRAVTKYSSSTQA
# [1] = molecular target: T1, Cse4 octamer (Cse4/H4/H2A/H2B), splits to hemisome (UniProt P36012;P02309;P04911;P02293 1-229;1-103;1-132;1-131)
# T1 sequence (P36012 whole entry, chain 1 of 2): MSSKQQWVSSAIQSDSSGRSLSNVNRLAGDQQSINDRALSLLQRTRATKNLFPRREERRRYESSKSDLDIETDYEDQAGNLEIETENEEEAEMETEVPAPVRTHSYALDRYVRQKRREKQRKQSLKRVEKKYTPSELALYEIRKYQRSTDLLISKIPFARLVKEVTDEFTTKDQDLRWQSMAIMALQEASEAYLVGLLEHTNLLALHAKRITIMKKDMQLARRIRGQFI
# T1 sequence (P02293 whole entry, chain 4 of 2): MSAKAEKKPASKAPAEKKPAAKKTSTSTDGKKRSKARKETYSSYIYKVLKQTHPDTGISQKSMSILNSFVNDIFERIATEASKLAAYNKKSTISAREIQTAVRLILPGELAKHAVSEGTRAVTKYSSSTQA
# [2] = molecular target: T2, H3 octamer (H3/H4/H2A/H2B), splits to hemisome (UniProt P61830;P02309;P04911;P02293 2-136;2-103;2-132;2-131)
# T2 sequence (P04911 2-132, chain 3 of 2): as the sequence (P04911 2-132, stated change not applied, chain 3 of 2) above
# T2 sequence (P02293 2-131, chain 4 of 2): as the sequence (P02293 2-131, stated change not applied, chain 4 of 2) above
# [3] = molecular target: T2, H3 octamer (H3/H4/H2A/H2B), splits to …; remark: listed apart in the source
# [4] = molecular target: T1, Cse4 octamer (Cse4/H4/H2A/H2B), splits …; remark: listed apart in the source
binder,measurement,setting,value
B1,binding result,Cse4-Δ90 octamer,binds
same,binding result,[1],binds
same,binding result,[2],binds
B2,binding result,[3],binds
same,binding result,[4],binds
